pKd: −log10 of the molar value.
Experiments:
[1] = target: T1, hAng-2-WT binding to hTie-2-mFc (Homo sapiens, UniProt O15123); test: Biosensor SPR blocking of hAng-2-WT binding to hTie-2-mFc-ecto surface; assay type: biochemical; settings: 25 nM hAng-2-WT
T1 sequence (O15123 19-496): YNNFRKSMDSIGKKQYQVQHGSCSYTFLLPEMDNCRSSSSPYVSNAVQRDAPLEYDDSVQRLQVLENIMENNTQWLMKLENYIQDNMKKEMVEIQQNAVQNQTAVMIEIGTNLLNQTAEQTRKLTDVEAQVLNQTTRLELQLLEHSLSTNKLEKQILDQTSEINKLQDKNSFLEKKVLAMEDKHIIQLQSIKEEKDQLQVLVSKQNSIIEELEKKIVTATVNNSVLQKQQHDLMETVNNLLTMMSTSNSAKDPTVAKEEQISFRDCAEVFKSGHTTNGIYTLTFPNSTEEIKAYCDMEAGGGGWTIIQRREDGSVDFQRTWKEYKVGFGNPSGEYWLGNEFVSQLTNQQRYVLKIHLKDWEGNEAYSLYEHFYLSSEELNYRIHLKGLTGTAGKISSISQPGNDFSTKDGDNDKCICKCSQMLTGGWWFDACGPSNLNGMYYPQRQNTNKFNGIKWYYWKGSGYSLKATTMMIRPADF
Method: The foregoing experiment was repeated using different amounts of Ang-2 blockers and controls. In particular, a human Tie-2 full-length extracellular domain construct (hTie-2-mFc-ecto) was amine-coupled on a BIACORE™ chip to create a receptor-coated surface. Selected anti-hAng-2 antibodies and control constructs (50 or 150 nM) were mixed with hAng-2-WT (25 nM) followed by 60 minutes incubation at 25° C. to allow antibody-antigen binding to reach equilibrium. The equilibrated solutions were injected over the receptor surfaces at 10 μL/min for 5 minutes at 25° C. To evaluate the ability of the selected anti-hAng-2 antibodies to block Ang-1-WT binding to hTie-2, a similar procedure was followed except the antibodies were tested at three concentrations (50, 100 or 1000 nM) and incubated with 10 nM of hAng-1-WT. Changes in resonance units (RU) due to the binding of the Ang-2-WT or hAng-1-WT to hTie-2-mFc were determined. An irrelevant antibody with no binding to either angiopoietin was included in these experiments to establish the 0% blocking baseline, and a human Tie-2-mFc construct was used as a positive control for blocking. Results are summarized in Tables 21 (hAng-1 applied to a hTie-2 surface) and 22 (hAng-2 applied to a hTie-2 surface).

[2] = test system: retinal superficial vasculature; test: Retinal vascularization in wild-type mice; assay type: in vivo; settings: 12.5 mg/kg subcutaneous at P2, retina at P5
Method: In one set of experiments wild-type mice were used. In another set, mice expressing a human Ang-2 in place of the wild-type mouse Ang-2 (designated “hu-Ang-2 mice”) were used. The mice at two days of age (P2) were injected subcutaneously with either control Fc or with selected anti-Ang-2 antibodies at a dose of 12.5 mg/kg. Three days later (at P5), pups were euthanized, and eyeballs were enucleated and fixed in 4% PFA for 30 minutes. Retinas were dissected, stained with Griffonia simplicifolia lectin-1 for 3 hours or overnight at 4° C. to visualize the vasculature, and flat-mounted on microscope slides. Images were taken using a Nikon Eclipse 80i microscope camera and analyzed using Adobe Photoshop CS3, Fovea 4.0, and Scion 1.63 software.
Areas of the retina covered with superficial vasculature were measured and used as a readout of antibody activity. The reduction in the size of the vascular areas in mice treated with antibody compared to Fc-treated controls is presented in Table 34. The percent reduction in vascular area reflects the anti-angiogenic potency of the antibody. (N/D=not determined)

[3] = target: T2, hAng-2FD-mFc K-432-N (Homo sapiens, UniProt O15123, K432N); test: Ang-2FD-mFc point mutant binding experiment (SPR), K-432-N; settings: K-432-N mutant captured; antibody/peptibody at 100 nM; 25° C.
T2 construct: made in house
T2 sequence (O15123 with tags, fused parts or gaps K432N): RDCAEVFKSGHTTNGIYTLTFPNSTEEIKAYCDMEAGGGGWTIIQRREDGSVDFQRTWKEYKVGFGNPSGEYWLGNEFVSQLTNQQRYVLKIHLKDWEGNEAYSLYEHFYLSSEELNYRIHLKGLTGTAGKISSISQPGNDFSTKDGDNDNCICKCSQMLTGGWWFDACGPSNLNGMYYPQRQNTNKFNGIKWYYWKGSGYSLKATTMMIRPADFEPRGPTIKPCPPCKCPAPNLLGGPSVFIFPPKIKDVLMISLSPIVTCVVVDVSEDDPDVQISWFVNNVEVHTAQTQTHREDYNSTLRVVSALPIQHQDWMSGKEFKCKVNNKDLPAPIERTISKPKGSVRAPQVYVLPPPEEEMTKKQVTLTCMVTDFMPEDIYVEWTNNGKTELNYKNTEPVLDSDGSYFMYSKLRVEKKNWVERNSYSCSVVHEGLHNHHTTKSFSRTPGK
Excerpt: (§1) To further characterize binding between hAng2 and anti-hAng2 mAbs of the invention, seven variant hAng2-FD-mFc proteins were generated, each containing a single point mutation. Amino acids selected for mutation were based on the difference in sequence between hAng-2 and hAng-1 in the region that interacts with hTie-2 (FIG. 1). In particular, amino acids within the fibrinogen-like domain (FD) of Ang-2 which are believed to interact with Tie-2 based on crystal structure analysis, but which differ from the corresponding amino acid in Ang-1, were individually mutated to the corresponding hAng-1 residue. The results of this example indicate the amino acid residues of hAng-2 with which the Ang-2 preferential binding antibodies interact.
(§2) In this experiment, each of the seven hAng-2FD-mFc mutant proteins were captured (˜147-283 RU) on an anti-mouse-Fc surface created through direct chemical coupling to a BIACORE™ chip. Then each Ang-2 antibody (or peptibody, as the case may be) at 100 nM was injected over the captured mFc-tagged hAng-2FD protein surface at a flowrate of 50 μl/min for 180 sec, and the dissociation of variant hAng2-FD-mFc and antibody was monitored in real time for 20 min at 25° C.

[4] = target: T3, hAng-2FD-mFc N-467-G (Homo sapiens, UniProt O15123, N467G); test: Ang-2FD-mFc point mutant binding experiment (SPR), N-467-G; settings: N-467-G mutant captured; antibody/peptibody at 100 nM; 25° C.
T3 construct: made in house
T3 sequence (O15123 with tags, fused parts or gaps N467G): as the sequence (O15123 with tags, fused parts or gaps K432N) above, with N151K, N186G counted along it
Excerpt: as §1, §2

[5] = target: T4, hAng-2FD-mFc F-469-L (Homo sapiens, UniProt O15123, F469L); test: Ang-2FD-mFc point mutant binding experiment (SPR), F-469-L; settings: F-469-L mutant captured; antibody/peptibody at 100 nM; 25° C.
T4 construct: made in house
T4 sequence (O15123 with tags, fused parts or gaps F469L): as the sequence (O15123 with tags, fused parts or gaps K432N) above, with N151K, F188L counted along it
Excerpt: as §1, §2

“H1H685P: human anti-Ang-2 antibody, HCVR/LCVR SEQ ID NOs 18/20; also referred to as mAb1 [Antibody H1H685P]” was tested, and the “Percent of Neg. Ctrl Binding (hAng-2 WT)” value ([1]; 50 nM antibody or control) was 4.3%, the “Specific Bound RU (hAng-2 WT)” value ([1]; 50 nM antibody or control) was 12 RU and the “Percent of Neg. Ctrl Binding (hAng-2 WT)” value ([1]; 150 nM antibody or control) was 4.3%. For the same substance, the “Specific Bound RU (hAng-2 WT)” value ([1]; 150 nM antibody or control) was 12 RU, the “% Reduction in Vascular Area Relative to Fc Control, Wild-Type Mice” value [2] was 39.7% and the pKd [3] was 10.85. It also gave an RU [3] of 152.68 RU, a pKd [4] of 11.03 and an RU [4] of 152.25 RU. For the same substance, the pKd [5] was 7.86 and the RU [5] was 101.16 RU.

Reference: patent publication US9926369B2, “Methods for treating hepatocellular cancer by administering an anti-Ang-2 antibody” (Regeneron Pharmaceuticals, Inc., priority 2009, dated 2018)
